Results reported in the supplement of paper PMC10567573.

B1: PTPRD (parent)
chain: FICQATGDPRPKIVWNKKGKKVSN

Variants of: B1
Assay: protein stability index of a GFP-peptide fusion (GPS, HEK-293T) (PSI 1-6); higher = more stable
Details: c terminus: a fixed tail appended
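Further: lentivirally expressed fusions sorted by FACS into six bins by GFP to DsRed ratio, PSI derived from sequencing read proportions per bin multiplied by bin number.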

Protein stability index: each site, then its substitutions
K21: Q 1.77 | I 2.2 | W 1.72 | R 2.49 | M 2.03 | D 1.99 | G 1.9 | V 1.9 | C 2.26 | L 2.9 | H 1.95 | P 2.18 | N 2.17 | S 2.28 | F 1.61 | T 2.45 | Y 1.49 | E 2.25 | A 2.52
S23: Y 2 | H 2.37 | M 2.29 | F 2.31 | Q 2.07 | A 2.49 | W 2.28 | P 2.15 | I 1.84 | K 2.52 | R 2.08 | N 2.12 | T 2.59 | C 2.69 | G 2.28 | V 2.4 | D 2.52 | L 2.14 | E 2.72
P11: L 3.08 | T 2.07 | R 2.5 | N 1.87 | K 1.45 | H 2.4 | W 1.87 | I 2.31 | D 2.11 | V 1.18 | S 2.18 | Y 2.31 | M 1.03 | E 2.88 | Q 2.19 | F 1.52 | G 2.04
N16: F 2.04 | G 1.05 | I 1.99 | H 1.74 | T 1.91 | V 1.37 | Y 1.89 | S 2.24 | K 2.25 | Q 2.56 | P 1.75 | A 1.72 | M 1.74 | R 1.96 | D 2.45 | E 2.75 | C 1.73 | W 1.48 | L 1.91
K20: M 1.8 | A 1.82 | V 1.44 | T 1.69 | Y 1.48 | H 2.71 | E 1.78 | C 1.17 | S 1.94 | I 1.88 | L 1.96 | P 2 | Q 2.56 | G 1.79 | R 2.39 | N 1.77 | D 1.64 | W 1.76
N24: G 2.22 | F 1.89 | K 1.85 | H 2.17 | W 1.92 | T 1.65 | A 1.97 | Q 2.02 | L 1.44 | R 3.04 | D 2.05 | I 2.73 | V 2.33 | Y 2.08 | P 2.31 | S 2.03 | E 2.37 | C 2.23 | M 1.4
V14: R 1.78 | I 2.23 | D 2.35 | E 2.7 | K 2.4 | P 2.21 | M 1.67 | H 2.27 | F 3.73 | Y 1.59 | W 2.18 | N 1.73 | Q 2.01 | S 2.27 | A 2.23 | G 2 | T 2.5
V22: F 2.4 | W 2.35 | T 2.29 | D 2.86 | E 2.34 | L 2.36 | A 2 | M 2.35 | C 2.13 | Y 2.47 | G 2.58 | Q 2.47 | P 2.62 | K 2.66 | R 2.04 | H 2.46 | S 2.41 | I 2.17 | N 2.16
K18: D 1.95 | P 1.97 | V 1.45 | G 2.04 | N 1.98 | C 1.72 | R 2.2 | M 1.46 | E 2.41 | L 1.67 | H 2.35 | S 1.61 | A 1.93 | F 1.38 | T 1.51 | Q 1.74 | Y 1.94 | I 1.24 | W 2.01
W15: S 2.7
